From the supplement of paper PMC9732359
± gives the uncertainty stated by the source.

Assay: protein stability index of a GFP-peptide fusion (yeast GPS) (PSI 1-4); higher = more stable; sorted into four equal gates, so the index is relative within each strain
Conditions: san1∆
In short: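 Mid-log yeast cultures in leucine-free medium, carrying a pooled plasmid library, were sorted into four equal gates by their GFP/Cherry fluorescence ratio. Each plasmid expressed Cherry along with GFP fused upstream of a tiled 17-residue yeast protein peptide. Plasmids recovered from each gate were PCR-amplified and Illumina-sequenced, with reads assigned to strains by barcodes. The protein stability index was obtained by summing each gate's read frequency weighted by its gate number.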

Sequence | protein stability index
KPAEKNNNETSKPAFSF [YJL041W/NSP1] | 2.24 ± 0.16
KPAFSFGAKPDENKASA [YJL041W/NSP1] | 2.76 ± 0.06
KPETLSIGKNPFNKPNI [SWI3] | 2.75 ± 0.033

Same assay, conditions: ubr1∆

Sequence | protein stability index
KDLVIVSNLMGRNIGHP [RPB3] | 2.88 ± 0.037
KDMSPILGELKRVKSYM [LRP1] | 2.97 ± 0.038
KDPSPEILVLYNVCDTS [SIN4] | 2.88 ± 0.12
KDQDSQIELSCNERVPL [SRP72] | 3.01 ± 0.059
KDSLDNTFVTRLNNVFV [RPS4A] | 2.95 ± 0.062
KDSLWQSEHLEAVVDQD [FAS1] | 3.41 ± 0.09
KDWELEARFWHLVELLL [YDL116W/NUP84] | 2.28 ± 0.062
KEDAKATMENIQKGKFT [SRP54] | 3.08 ± 0.051
KEEFSSDESIERLMTWK [RRI2] | 2.43 ± 0.17
KEEGLQQFNLHEILSEP [MED1] | 2.62 ± 0.12
KEEQPKQIIVTRKAMLD [PRP8] | 2.61 ± 0.049
KEHDEIEEQGDALQDVE [DPB4] | 3.36 ± 0.067
KEIMDKIITSRPLQKIM [SIN4] | 1.06 ± 0.065
KEKESKKDSKPAFSFGI [YLR335W/NUP2] | 3.23 ± 0.059
KEKIQHELGINIDSLKF [BRR2] | 3.22 ± 0.06
KEKVEEQEQQQQQIIKI [RPS20] | 3.24 ± 0.091
KEKVSNGGVGVDVELIT [FAS2] | 3.05 ± 0.05
KEKYGLAVSTILGKNFD [SMC1] | 2.58 ± 0.05
KELFEKTFDYVSDHLDA [SMC1] | 3 ± 0.049
KELNTERQIFLEACIVR [CDC53] | 2.57 ± 0.047
KELQLEKESVEKQHENA [SMC3] | 3.15 ± 0.054
KENDTVMNTKLLQEGGS [ESC2] | 3.21 ± 0.076
KEPKKLLPNSKNVENTK [DSN1] | 3.21 ± 0.083
KEPPRDRKKDKNVKHSG [RPL12A] | 3.17 ± 0.061
KEPVDDKDVKAKYETSI [FAS2] | 2.83 ± 0.13

Sequence | protein stability index
KEQYNRYRDLMISCLMN [MTR3] | 2.46 ± 0.086
KERNQKFQLQNQLEDFI [YIL149C/MLP2] | 3 ± 0.053
KESDESKSAFSFGSKPT [YJL041W/NSP1] | 3.108 ± 0.031
KESQLPRIQRADPVALY [RPB5] | 2.59 ± 0.048
KFELGRQPANTKIGAKR [RPS8A] | 3.18 ± 0.055
KFFIMIVKGNIIDEIKC [POP4] | 1.66 ± 0.056
KFLILNENPINKIMTNQ [NUT1] | 2.99 ± 0.089
KFQKLLQNSERDVELSS [SMC4] | 3.05 ± 0.052
KFSDIIQGISKMYSDDT [BRN1] | 2.3 ± 0.085
KGLLIWRLLFIDKFIMV [GRR1] | 1.5 ± 0.052
KGLQIYQSSVQEPFLNS [PRP8] | 2.83 ± 0.04
KGLTYLHLDYNFNLKPT [PRP8] | 2.22 ± 0.03
KGRFAVHRITDEEASYK [RPS4A] | 3.33 ± 0.07
KGSRKSSKAATPDTKNF [SNF12] | 2.98 ± 0.042
KGTGEESNDRINKIVEI [YGR119C/NUP57] | 2.89 ± 0.15
KGTNGKKALKVRTSATF [RPL25] | 3.3 ± 0.068
KGTVFQFEIPISDDDDS [POP4] | 3.13 ± 0.042
KHIKNLEDDSLLSYPIK [RPN12] | 2.617 ± 0.026
KICSSEMINEQKLPQYI [RGR1] | 2.98 ± 0.1
KIELIKNNLLIPDLSIQ [RPN12] | 2.06 ± 0.036
KIENSVQIGAEIILDFL [CSI1] | 2.61 ± 0.11
KIHSILPVMESLDSCTA [YJR042W/NUP85] | 2.24 ± 0.068
KIIALQPNEISFKYLSN [RGR1] | 2.48 ± 0.098
KIKLLTQATSEDGTSAS [RPC19] | 3.11 ± 0.078
KIPSASIWGNGYSGYGN [SNF5] | 3.3 ± 0.05

Sequence | protein stability index
KIQASDVNIIGKDRIAI [RPO31] | 3.35 ± 0.081
KIQQQQPGYADLEHKED [QCR6] | 2.69 ± 0.044
KIRMLTQAAEFLSPYIS [IRR1] | 2.23 ± 0.045
KITTSTEDQKVTTNINW [SRP68] | 3.11 ± 0.054
KIVVLSRTGPVFDLCWN [RRP43] | 2.39 ± 0.035
KIYDAFPQTAMLRRHAA [DIS3] | 2.4 ± 0.061
KKASDLVDTPSNNTAAT [NUT1] | 3.21 ± 0.06
KKCLKLAYENKITDKED [POP4] | 3.032 ± 0.025
KKIRFLQLIIFLRTQFL [RGR1] | 1.21 ± 0.073
KKIRNVPVRDGVTIEFS [RPL9A] | 3.21 ± 0.092
KKLATRPKCGDCGSALQ [RPL34A] | 2.89 ± 0.12
KKLELPKYIDELKTRDA [SWP82] | 3.48 ± 0.071
KKLFQKKENLTRDETVS [YML103C/NUP188] | 3.3 ± 0.088
KKLKAVRIIKHTLDIIN [RPS5] | 2.36 ± 0.051
KKNDEVSKPAFSFGAKA [YJL041W/NSP1] | 3.07 ± 0.099
KKQQAALTNELNELKAI [YIL149C/MLP2] | 1.55 ± 0.051
KKRMNSNQERCHDEGND [RRI1] | 3.13 ± 0.061
KKRSQAKMNAKTDFAKI [RPC82] | 3.37 ± 0.059
KKTATEPKQKANAVQNN [SRP21] | 3.24 ± 0.12
KKTCSSCGYPAAKTRSY [RPL37A] | 3.27 ± 0.11
KKTCSSCGYPSAKTRSH [RPL37B] | 1.99 ± 0.04
KKVKLAVLSYYKVDAEG [RPS31] | 1.95 ± 0.068
KLALAENDTNMNETLNL [SMC4] | 2.85 ± 0.089
KLDSKKTVPFQVNQLQR [SSN3] | 3.12 ± 0.049
KLFNKWSFEEVEVKDAS [RPS5] | 1.67 ± 0.06

Sequence | protein stability index
KLHMGTDDVRLAPELNQ [RPL31A] | 3.09 ± 0.052
KLIPKLYRYRFDPFQAV [ECM29] | 2.8 ± 0.063
KLKEYLDLVARTATLSN [YDL116W/NUP84] | 2.74 ± 0.15
KLLASTEENKANTNSVT [YIL149C/MLP2] | 3.32 ± 0.036
KLLLLNTSAIQETASPL [YIL149C/MLP2] | 2.56 ± 0.088
KLRKIAISKKNKSLKYV [LIN1] | 1.15 ± 0.048
KLTGDDQKFGVPVRSFK [ASC1] | 3 ± 0.1
KLTRELEKKFPDRHVIF [RPS7B] | 3.14 ± 0.033
KLVTNVVDPKTSIEKSS [YML103C/NUP188] | 2.62 ± 0.051
KLWRKIARLYSCISISD [RRI2] | 1.61 ± 0.038
KLYVDAVHSIIALSRRF [YDL116W/NUP84] | 1.93 ± 0.064
KLYVSHIQVNQAPKQRR [RPL17A] | 2.08 ± 0.11
KMMSFQANPTEESISKF [RPB5] | 3.15 ± 0.12
KNAANTEGHKGHEELKR [ISW2] | 3.35 ± 0.061
KNHFRKHWQERVKVHFD [RPL13A] | 1.54 ± 0.038
KNIKIIMATNRLDILDP [RPT6] | 3.3 ± 0.058
KNKSGKIFVETKFSKLI [FAS1] | 1.84 ± 0.077
KNKYGEINSEDYDNKTK [SRP68] | 3.14 ± 0.084
KNLKHIDVTFTKVNNQL [RPL9A] | 2.62 ± 0.045
KNREVVQVSKAGGLPMD [RRP45] | 3.28 ± 0.067
KNVENTKNLSILTSKVN [DSN1] | 2.51 ± 0.036
KNYSRPSTAIHTSPHQP [SIR4] | 2.72 ± 0.044
KPAEKNNNETSKPAFSF [YJL041W/NSP1] | 1.64 ± 0.11
KPAFSFGAKPDENKASA [YJL041W/NSP1] | 3.24 ± 0.063
KPETLSIGKNPFNKPNI [SWI3] | 2.99 ± 0.03
